Tests used:
[1] = target: membrane bound MUC1 TR reporter on HEK293 WT cells (core2 O-glycans) (human) (UniProt P15941); experiment: cell-based or functional assay
[2] = target: secreted purified MUC1 TR reporter, WT glycoform (core2 sialylated O-glycans, HEK293 WT) (human) (UniProt P15941); experiment: cell-based or functional assay
[3] = target: T1, secreted purified MUC5AC TR reporter, WT glycoform (core2 sialylated O-glycans, HEK293 WT) (human, UniProt P98088 2708-2850); experiment: microscale thermophoresis (MST), […]
T1 sequence: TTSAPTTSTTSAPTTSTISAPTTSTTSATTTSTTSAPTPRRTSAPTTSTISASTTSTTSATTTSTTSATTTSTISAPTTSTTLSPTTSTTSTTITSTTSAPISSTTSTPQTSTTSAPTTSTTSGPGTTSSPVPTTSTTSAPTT

[4] = target: T2, secreted purified MUC5AC TR reporter, Tn glycoform (human, UniProt P98088 2708-2850); experiment: microscale thermophoresis (MST), […]
T2 sequence: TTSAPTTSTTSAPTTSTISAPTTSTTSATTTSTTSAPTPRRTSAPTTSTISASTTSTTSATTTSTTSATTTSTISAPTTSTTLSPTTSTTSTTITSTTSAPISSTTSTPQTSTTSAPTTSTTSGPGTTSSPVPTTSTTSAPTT

[5] = target: secreted purified MUC1 TR reporter, WT glycoform (core2 sialylated O-glycans, HEK293 WT) (human, UniProt P15941 121-260); experiment: microscale thermophoresis (MST), […]
[6] = target: secreted purified MUC21 TR reporter, Tn glycoform (human, UniProt Q5SSG8 130-278); experiment: ELISA with purified secreted reporters
Sequence of secreted purified MUC21 TR reporter, Tn glycoform (Q5SSG8 130-278): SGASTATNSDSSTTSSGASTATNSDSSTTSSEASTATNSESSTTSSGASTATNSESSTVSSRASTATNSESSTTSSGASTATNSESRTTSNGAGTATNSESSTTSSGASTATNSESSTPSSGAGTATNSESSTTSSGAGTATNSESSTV

Sequence of secreted purified MUC1 TR reporter, WT glycoform (core2 sialylated O-glycans, HEK293 WT) (P15941 121-260): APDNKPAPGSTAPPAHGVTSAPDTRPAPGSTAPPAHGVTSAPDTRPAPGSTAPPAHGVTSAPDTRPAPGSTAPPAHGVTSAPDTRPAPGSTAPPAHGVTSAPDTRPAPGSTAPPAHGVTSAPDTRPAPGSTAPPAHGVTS
Sequence of secreted purified MUC1 TR reporter, WT glycoform (core2 sialylated O-glycans, HEK293 WT) (human) (P15941 121-260): as above
Sequence of membrane bound MUC1 TR reporter on HEK293 WT cells (core2 O-glycans) (human) (P15941 121-260 limits assumed): as the sequence (P15941 121-260) above

StcE (Secreted protease of C1 esterase inhibitor) wildtype, recombinant (from UniProt O82882 36-898) (enzyme)
cleavage, dose titration on cells (flow cytometry) [1]: > 10 µg/mL | cleavage, dose titration with the isolated reporter (SDS-PAGE) [2]: > 10 µg/mL

B1: AlexaFluoro647 labelled MBP-X409 (other)
chain: EGCIVSVNSGKRYCLPVGQRSGYSLPDWIVGQEVYVDSGAKAKVLLSDWDNLSYNRIGEFVGNVNPADMKKVKAWNGQYLDFSKPRSMRVVYK
Kd [3]: 14 nM | Kd [4]: 37 nM | Kd [5]: 2600 nM | fold lower binding affinity (against MUC5Ac) [5]: > 1000 fold

B2: X409 module of Escherichia coli O157:H7 StcE (tags of the construct not stated) (other)
chain: EGCIVSVNSGKRYCLPVGQRSGYSLPDWIVGQEVYVDSGAKAKVLLSDWDNLSYNRIGEFVGNVNPADMKKVKAWNGQYLDFSKPRSMRVVYK
binding result [6]: binds

Source: patent publication US20240263161A1 (UNIVERSITY OF COPENHAGEN, published 2024)
